Legend:
LAG3-Fc (rmLAG3-Fc) [1] = target: T1, LAG3-Fc (rmLAG3-Fc) (mouse, UniProt Q61790 24-442); test: filter binding; 2 mM Ca2+; Filter binding: 20 mM HEPES pH 7.4, 150 mM NaCl, 2 mM CaCl2, 37 C, 30 min; SPR: PBS, 0.005% Tween 20, pH 7.4, temperature not stated; settings: protein: recombinant; tags: human IgG2-Fc fusion; chain copies: 2; label: 32P (alpha-ATP)
LAG3-Fc (rmLAG3-Fc) [2] = target: T1, LAG3-Fc (rmLAG3-Fc); test: SPR; apparent Kd from equilibrium RU; printed kon 1x10^3, koff <2.1x10^-4 s-1 do not match it; Filter binding: 20 mM HEPES pH 7.4, 150 mM NaCl, 2 mM CaCl2, 37 C, 30 min; SPR: PBS, 0.005% Tween 20, pH 7.4, temperature not stated; settings: protein: recombinant; tags: human IgG2-Fc fusion; chain copies: 2

T1 sequence (Q61790 24-442): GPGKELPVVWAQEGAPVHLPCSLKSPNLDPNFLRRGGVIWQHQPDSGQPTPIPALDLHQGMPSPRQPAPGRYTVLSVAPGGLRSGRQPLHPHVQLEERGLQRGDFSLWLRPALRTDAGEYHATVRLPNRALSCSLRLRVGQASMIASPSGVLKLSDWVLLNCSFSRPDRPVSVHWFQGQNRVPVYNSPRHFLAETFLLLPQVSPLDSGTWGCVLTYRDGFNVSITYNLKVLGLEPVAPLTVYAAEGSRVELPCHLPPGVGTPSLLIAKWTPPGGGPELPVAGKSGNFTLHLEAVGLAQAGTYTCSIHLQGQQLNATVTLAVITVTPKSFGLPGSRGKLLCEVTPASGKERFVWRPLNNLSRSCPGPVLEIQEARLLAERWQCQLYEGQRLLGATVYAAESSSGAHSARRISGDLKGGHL

| Binder | Kd (LAG3-Fc (rmLAG3-Fc) [1]) [nM] | Kd (LAG3-Fc (rmLAG3-Fc) [2]) [nM] |
| --- | --- | --- |
| LAG3 Apt1 (structured_RNA, 2'-F-U, 2'-F-C) RNA: GGGAGAGAGAUAUAAGGGCCUCCUGAUACCCGCUGCUAUCUGGACCGAUCCCAUUACCAAAUUCUCUCCC | 20 | – |
| LAG3 Apt1, biotinylated (structured_RNA, 2'-F-U, 2'-F-C) RNA: GGGAGAGAGAUAUAAGGGCCUCCUGAUACCCGCUGCUAUCUGGACCGAUCCCAUUACCAAAUUCUCUCCC | – | 2.7 |
| LAG3 Apt5 (structured_RNA, 2'-F-U, 2'-F-C) RNA: GGGAGAGAGAUAUAAGGGUCUUGCCCAUCGACAAUAGAGCCCAGUCGCUGCCCAUUACCAAAUUCUCUCC | 200 | – |
| LAG3 Apt4 (structured_RNA, 2'-F-U, 2'-F-C) RNA: GGGAGAGAGAUAUAAGGGACCGAAUCUGGUUAAUCUGCCUCACGUUAGGCCCAUUACCAAAUUCUCUCCC | 100 | – |
| LAG3 Apt2 (structured_RNA, 2'-F-U, 2'-F-C) RNA: GGGAGAGAGAUAUAAGGGUCUUGCCUGAUGGAGUUGGAGAGGACCAUCACCCAUUACCAAAUUCUCUCCC | 50 | – |

From paper PMC5608357, “Identification of LAG3 high affinity aptamers by HT-SELEX and Conserved Motif Accumulation (CMA)”
